Biological target: NTAP-tagged TRAPPC8
Experiment: co-IP (IP: anti-Myc, immunoblot)
Details: 0.5% input, parent: 1

Substance | ratio to parent
Mouse OFD1, wild type (from UniProt Q80Z25) S437R | 1.02
Mouse OFD1, wild type (from UniProt Q80Z25) A80T | 1.04
Mouse OFD1, wild type (from UniProt Q80Z25) G139S | 1
Mouse OFD1, wild type (from UniProt Q80Z25) S75F | 0.7

— paper PMC7090148 (2020)
